In the supplement of paper PMC9112550, “Optimization of the antimicrobial peptide Bac7 by deep mutational scanning” (BMC Biology, 2022):

Test system: Escherichia coli TOP10
Test: shrunken log2 fold change of peptide-encoding DNA abundance (4.5 h post-induction vs induction); higher = less antimicrobial activity (less host growth inhibition)
Settings: time post-induction: 4.5 h; library: site-saturation at positions 5, 18, 19, 20
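Further: peptides expressed intracellularly from a pBAD plasmid library in pooled LB shake-flask culture, induced with 0.3% L-arabinose, DNA abundance read by NGS, three biological replicates, DESeq2 with apeglm shrinkage.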

| Sequence | shrunken log2 fold change |
| --- | --- |
| RRIRHRPPRLPRPRPRPIRLPRP | -0.0644 |
| RRIRHRPPRLPRPRPRPGPWPRP | 0.166 |
| RRIRDRPPRLPRPRPRPLDEPRP | 0.034 |
| RRIRCRPPRLPRPRPRPSHQPRP | -1.04 |
| RRIRTRPPRLPRPRPRPHKLPRP | -0.236 |
| RRIRERPPRLPRPRPRPMTHPRP | -0.0346 |
| RRIRDRPPRLPRPRPRPKSHPRP | -0.204 |
| RRIRPRPPRLPRPRPRPMASPRP | 0.011 |
| RRIRQRPPRLPRPRPRPTMLPRP | -0.339 |
| RRIRDRPPRLPRPRPRPKHLPRP | -0.0209 |
| RRIRPRPPRLPRPRPRPCYGPRP | 0.0701 |
| RRIRFRPPRLPRPRPRPQGGPRP | 0.0852 |
| RRIRTRPPRLPRPRPRPDYDPRP | 0.00888 |
| RRIRFRPPRLPRPRPRPTHLPRP | 0.222 |
| RRIRSRPPRLPRPRPRPYYDPRP | -0.214 |
| RRIRVRPPRLPRPRPRPARSPRP | -0.024 |
| RRIRIRPPRLPRPRPRPFVWPRP | -0.157 |
| RRIRFRPPRLPRPRPRPSAKPRP | 0.319 |
| RRIRKRPPRLPRPRPRPNQEPRP | -0.0316 |
| RRIRRRPPRLPRPRPRPSPAPRP | 0.868 |
| RRIRSRPPRLPRPRPRPDPKPRP | -0.00687 |
| RRIRTRPPRLPRPRPRPFVWPRP | 0.00322 |
| RRIRPRPPRLPRPRPRPCPIPRP | 0.082 |
| RRIRSRPPRLPRPRPRPCGEPRP | 0.385 |
| RRIRERPPRLPRPRPRPPGPPRP | 0.478 |

| Sequence | shrunken log2 fold change |
| --- | --- |
| RRIRYRPPRLPRPRPRPTLWPRP | 0.31 |
| RRIRFRPPRLPRPRPRPCVDPRP | 0.0365 |
| RRIRARPPRLPRPRPRPPLCPRP | 0.762 |
| RRIRTRPPRLPRPRPRPIIIPRP | -0.219 |
| RRIRQRPPRLPRPRPRPYNWPRP | -0.11 |
| RRIRWRPPRLPRPRPRPHEEPRP | 0.0119 |
| RRIRYRPPRLPRPRPRPPHLPRP | -0.52 |
| RRIRQRPPRLPRPRPRPGERPRP | 0.0849 |
| RRIRPRPPRLPRPRPRPVSTPRP | 0.13 |
| RRIRRRPPRLPRPRPRPCRQPRP | 0.0284 |
| RRIRTRPPRLPRPRPRPGYPPRP | -0.197 |
| RRIRGRPPRLPRPRPRPFYMPRP | -0.0339 |
| RRIRIRPPRLPRPRPRPRVEPRP | -0.0648 |
| RRIRTRPPRLPRPRPRPDRCPRP | -0.0274 |
| RRIRYRPPRLPRPRPRPFNFPRP | -0.771 |
| RRIRQRPPRLPRPRPRPKTDPRP | -0.326 |
| RRIRCRPPRLPRPRPRPPMPPRP | 0.45 |
| RRIRARPPRLPRPRPRPRPQPRP | 0.731 |
| RRIRPRPPRLPRPRPRPALAPRP | 0.412 |
| RRIRRRPPRLPRPRPRPKGWPRP | 0.439 |
| RRIRCRPPRLPRPRPRPEGPPRP | 0.261 |
| RRIRPRPPRLPRPRPRPFHSPRP | -0.153 |
| RRIRHRPPRLPRPRPRPTWAPRP | 0.303 |
| RRIRRRPPRLPRPRPRPKECPRP | 0.0842 |
| RRIRVRPPRLPRPRPRPNRGPRP | 0.108 |

| Sequence | shrunken log2 fold change |
| --- | --- |
| RRIRWRPPRLPRPRPRPWLLPRP | -0.0799 |
| RRIRKRPPRLPRPRPRPKLHPRP | 0.129 |
| RRIRARPPRLPRPRPRPQTYPRP | 0.00151 |
| RRIRERPPRLPRPRPRPFMHPRP | -0.121 |
| RRIRQRPPRLPRPRPRPTTMPRP | -0.11 |
| RRIRIRPPRLPRPRPRPWQYPRP | -0.0758 |
| RRIRFRPPRLPRPRPRPGCDPRP | 0.106 |
| RRIRQRPPRLPRPRPRPNSWPRP | 0.0283 |
| RRIRFRPPRLPRPRPRPWHVPRP | -0.0433 |
| RRIRVRPPRLPRPRPRPLGWPRP | 0.467 |
| RRIRPRPPRLPRPRPRPAQKPRP | 0.273 |
| RRIRFRPPRLPRPRPRPFPMPRP | -0.0754 |
| RRIRARPPRLPRPRPRPGNQPRP | -0.0242 |
| RRIRGRPPRLPRPRPRPRFMPRP | 0.172 |
| RRIRVRPPRLPRPRPRPLYSPRP | -0.343 |
| RRIRHRPPRLPRPRPRPPQNPRP | 0.613 |
| RRIRVRPPRLPRPRPRPMQNPRP | 0.111 |
| RRIRSRPPRLPRPRPRPYWPPRP | -0.642 |
| RRIRCRPPRLPRPRPRPYFIPRP | -1.18 |
| RRIRQRPPRLPRPRPRPESFPRP | 0.0552 |
| RRIRHRPPRLPRPRPRPLQAPRP | -0.279 |
| RRIRCRPPRLPRPRPRPKSWPRP | 0.323 |
| RRIRRRPPRLPRPRPRPLSVPRP | 0.298 |
| RRIRNRPPRLPRPRPRPKTYPRP | -1.23 |
| RRIRRRPPRLPRPRPRPNCMPRP | 0.0934 |

| Sequence | shrunken log2 fold change |
| --- | --- |
| RRIRTRPPRLPRPRPRPQRYPRP | -0.127 |
| RRIRMRPPRLPRPRPRPTKIPRP | 0.318 |
| RRIRRRPPRLPRPRPRPEYVPRP | 0.0703 |
| RRIRFRPPRLPRPRPRPTAVPRP | 0.117 |
| RRIRERPPRLPRPRPRPQCLPRP | -0.116 |
| RRIRSRPPRLPRPRPRPSTHPRP | -0.353 |
| RRIRRRPPRLPRPRPRPTHSPRP | 0.775 |
| RRIRPRPPRLPRPRPRPLNQPRP | -0.217 |
| RRIRFRPPRLPRPRPRPFHEPRP | -0.649 |
| RRIRIRPPRLPRPRPRPYWQPRP | -0.774 |
| RRIRWRPPRLPRPRPRPVMCPRP | -0.0922 |
| RRIRERPPRLPRPRPRPKHRPRP | -0.457 |
| RRIRWRPPRLPRPRPRPMTGPRP | 0.019 |
| RRIRHRPPRLPRPRPRPSPEPRP | -0.0554 |
| RRIRVRPPRLPRPRPRPTNSPRP | -0.436 |
| RRIRKRPPRLPRPRPRPWTQPRP | 0.0628 |
| RRIRRRPPRLPRPRPRPTGRPRP | 0.489 |
| RRIRIRPPRLPRPRPRPPPIPRP | 0.141 |
| RRIRNRPPRLPRPRPRPDENPRP | 0.00254 |
| RRIRQRPPRLPRPRPRPGMSPRP | 0.285 |
| RRIRHRPPRLPRPRPRPLNDPRP | 0.00159 |
| RRIRERPPRLPRPRPRPGVAPRP | 0.146 |
| RRIRRRPPRLPRPRPRPQYLPRP | -0.0489 |
| RRIRERPPRLPRPRPRPRQRPRP | 0.32 |
| RRIRPRPPRLPRPRPRPAMYPRP | 0.0514 |

| Sequence | shrunken log2 fold change |
| --- | --- |
| RRIRPRPPRLPRPRPRPFLKPRP | -0.159 |
| RRIRHRPPRLPRPRPRPAKSPRP | 0.076 |
| RRIRSRPPRLPRPRPRPKLFPRP | 0.172 |
| RRIRHRPPRLPRPRPRPPMCPRP | -0.00483 |
| RRIRVRPPRLPRPRPRPRTNPRP | -0.42 |
| RRIRLRPPRLPRPRPRPRKNPRP | 0.0496 |
| RRIRKRPPRLPRPRPRPFNCPRP | 0.0153 |
| RRIRARPPRLPRPRPRPCHWPRP | -0.153 |
| RRIRNRPPRLPRPRPRPGIDPRP | -0.042 |
| RRIRDRPPRLPRPRPRPEKRPRP | -0.0167 |
| RRIRMRPPRLPRPRPRPSFQPRP | -0.283 |
| RRIRQRPPRLPRPRPRPNHLPRP | -1.03 |
| RRIRNRPPRLPRPRPRPHILPRP | -0.106 |
| RRIRLRPPRLPRPRPRPIYDPRP | -1 |
| RRIRTRPPRLPRPRPRPRARPRP | 0.63 |
| RRIRRRPPRLPRPRPRPAIDPRP | 0.193 |
| RRIRTRPPRLPRPRPRPEYIPRP | 0.00825 |
| RRIRIRPPRLPRPRPRPCARPRP | 0.039 |
| RRIRCRPPRLPRPRPRPSKMPRP | -0.492 |
| RRIRYRPPRLPRPRPRPGHVPRP | -0.59 |
| RRIRLRPPRLPRPRPRPSNHPRP | -1.15 |
| RRIRKRPPRLPRPRPRPMWGPRP | -0.0954 |
| RRIRWRPPRLPRPRPRPRHYPRP | 0.00846 |
| RRIRKRPPRLPRPRPRPIMYPRP | 0.0532 |
| RRIRNRPPRLPRPRPRPQMQPRP | -0.0154 |
